Measurements reported in US20060253917A1 (published 2006).

T1: OsMADS8 aa 75-238 (Oryza sativa, UniProt Q9SAR1 75-238)
T1 construct: prey, AD fusion; also called PN20778
T1 sequence: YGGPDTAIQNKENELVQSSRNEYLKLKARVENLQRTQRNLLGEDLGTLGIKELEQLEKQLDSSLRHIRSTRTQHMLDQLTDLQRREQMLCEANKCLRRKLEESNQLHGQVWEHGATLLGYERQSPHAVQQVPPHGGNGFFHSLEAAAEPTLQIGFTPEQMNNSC

T2: OsMADS45 aa 83-234 (Oryza sativa, UniProt P0C5B0 83-234)
T2 construct: prey, AD fusion; also called PN20231
T2 sequence: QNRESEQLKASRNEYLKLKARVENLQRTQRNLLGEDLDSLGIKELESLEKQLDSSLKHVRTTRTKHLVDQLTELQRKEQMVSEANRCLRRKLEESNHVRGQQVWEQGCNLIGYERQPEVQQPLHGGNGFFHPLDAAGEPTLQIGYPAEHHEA

T3: OsMADS8 aa 79-248 (Oryza sativa, UniProt Q9SAR1 79-248)
T3 construct: prey, AD fusion; also called PN20778
T3 sequence: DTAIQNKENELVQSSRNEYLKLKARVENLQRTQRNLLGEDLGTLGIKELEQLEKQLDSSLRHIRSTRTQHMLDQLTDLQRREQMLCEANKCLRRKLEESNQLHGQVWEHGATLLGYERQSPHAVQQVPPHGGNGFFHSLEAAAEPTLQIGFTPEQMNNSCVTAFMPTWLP

T4: OsMADS1 aa 70-257 (Oryza sativa, UniProt A2XDY1 70-257)
T4 construct: prey, AD fusion; also called PN19788
T4 sequence: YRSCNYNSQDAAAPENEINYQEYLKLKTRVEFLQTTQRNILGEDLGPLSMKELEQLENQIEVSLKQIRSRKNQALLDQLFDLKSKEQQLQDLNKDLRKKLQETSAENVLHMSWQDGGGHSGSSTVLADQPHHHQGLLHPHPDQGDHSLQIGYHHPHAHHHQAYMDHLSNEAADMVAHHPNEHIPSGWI

T5: OsRAP1B aa 1-179 (Oryza sativa, UniProt Q10CQ1 1-179)
T5 construct: prey, AD fusion; also called PN20232
T5 sequence: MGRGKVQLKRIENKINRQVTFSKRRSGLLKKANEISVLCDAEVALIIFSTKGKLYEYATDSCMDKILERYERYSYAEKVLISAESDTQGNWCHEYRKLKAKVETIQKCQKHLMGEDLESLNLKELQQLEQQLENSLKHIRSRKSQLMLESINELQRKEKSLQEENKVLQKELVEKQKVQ

T6: OsMADS45 aa 56-249 (Oryza sativa, UniProt P0C5B0 56-249)
T6 construct: prey, AD fusion; also called PN20231
T6 sequence: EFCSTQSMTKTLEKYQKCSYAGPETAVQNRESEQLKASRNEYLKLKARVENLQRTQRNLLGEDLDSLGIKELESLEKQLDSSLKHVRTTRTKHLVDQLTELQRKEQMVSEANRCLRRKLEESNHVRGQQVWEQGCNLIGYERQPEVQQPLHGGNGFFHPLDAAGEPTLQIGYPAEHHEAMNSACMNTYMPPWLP

T7: OsMADS1 aa 74-172 (Oryza sativa, UniProt A2XDY1 74-172)
T7 construct: prey, AD fusion; also called PN19788
T7 sequence: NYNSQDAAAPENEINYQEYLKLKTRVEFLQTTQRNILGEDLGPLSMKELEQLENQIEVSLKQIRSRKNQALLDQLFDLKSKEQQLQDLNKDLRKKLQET

T8: OsMADS1 aa 95-254 (Oryza sativa, UniProt A2XDY1 95-254)
T8 construct: prey, AD fusion; also called PN19788
T8 sequence: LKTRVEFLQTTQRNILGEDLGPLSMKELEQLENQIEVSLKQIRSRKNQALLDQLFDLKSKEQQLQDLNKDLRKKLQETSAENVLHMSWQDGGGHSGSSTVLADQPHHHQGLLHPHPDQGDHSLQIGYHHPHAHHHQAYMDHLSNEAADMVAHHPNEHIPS

T9: OsMADS45 aa 120-249 (Oryza sativa, UniProt P0C5B0 120-249)
T9 construct: prey, AD fusion; also called PN20231
T9 sequence: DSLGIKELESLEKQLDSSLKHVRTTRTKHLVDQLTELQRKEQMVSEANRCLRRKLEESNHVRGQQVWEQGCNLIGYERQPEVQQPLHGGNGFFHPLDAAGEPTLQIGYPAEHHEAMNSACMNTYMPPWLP

T10: OsMADS17 aa 51-248 (Oryza sativa, UniProt Q7XUN2 51-248)
T10 construct: prey, AD fusion; also called PN20914
T10 sequence: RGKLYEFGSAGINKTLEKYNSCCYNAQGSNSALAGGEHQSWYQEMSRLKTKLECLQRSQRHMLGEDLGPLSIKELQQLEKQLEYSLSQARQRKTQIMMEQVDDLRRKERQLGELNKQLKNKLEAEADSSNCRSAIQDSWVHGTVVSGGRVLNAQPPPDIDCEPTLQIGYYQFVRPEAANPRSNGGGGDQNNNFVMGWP

T11: OsFDRMADS6 aa 74-246 (Oryza sativa, UniProt P0C5B1 74-246)
T11 construct: prey, AD fusion; also called PN19766
T11 sequence: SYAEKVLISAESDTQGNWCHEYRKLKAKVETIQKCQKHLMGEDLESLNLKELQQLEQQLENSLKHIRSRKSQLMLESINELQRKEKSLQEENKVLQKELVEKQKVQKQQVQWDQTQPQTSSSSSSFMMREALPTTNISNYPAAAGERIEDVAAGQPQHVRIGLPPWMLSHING

T12: OsMADS8 aa 68-245 (Oryza sativa, UniProt Q9SAR1 68-245)
T12 construct: prey, AD fusion; also called PN20778
T12 sequence: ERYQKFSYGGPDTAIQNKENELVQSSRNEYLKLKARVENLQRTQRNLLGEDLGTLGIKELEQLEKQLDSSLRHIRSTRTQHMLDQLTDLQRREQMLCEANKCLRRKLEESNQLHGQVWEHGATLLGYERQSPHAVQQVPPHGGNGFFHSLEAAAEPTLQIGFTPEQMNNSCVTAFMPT

T13: OsMADS45 aa 57-249 (Oryza sativa, UniProt P0C5B0 57-249)
T13 construct: prey, AD fusion; also called PN20231
T13 sequence: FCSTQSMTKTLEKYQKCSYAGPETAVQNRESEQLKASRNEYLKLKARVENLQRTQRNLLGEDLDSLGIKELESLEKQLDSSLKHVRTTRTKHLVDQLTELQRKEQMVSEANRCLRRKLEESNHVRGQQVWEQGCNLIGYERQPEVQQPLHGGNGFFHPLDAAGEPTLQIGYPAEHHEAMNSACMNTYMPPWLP

T14: OsMADS45 aa 2-214 (Oryza sativa, UniProt P0C5B0 2-214)
T14 construct: prey, AD fusion; also called PN20231
T14 sequence: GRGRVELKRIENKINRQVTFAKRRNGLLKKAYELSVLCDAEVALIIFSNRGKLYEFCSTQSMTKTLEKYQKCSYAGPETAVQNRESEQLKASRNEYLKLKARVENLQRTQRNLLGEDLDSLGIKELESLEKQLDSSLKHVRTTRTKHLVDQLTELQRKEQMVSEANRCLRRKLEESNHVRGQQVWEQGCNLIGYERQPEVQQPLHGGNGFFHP

T15: OsMADS8 aa 6-159 (Oryza sativa, UniProt Q9SAR1 6-159)
T15 construct: prey, AD fusion; also called PN20778
T15 sequence: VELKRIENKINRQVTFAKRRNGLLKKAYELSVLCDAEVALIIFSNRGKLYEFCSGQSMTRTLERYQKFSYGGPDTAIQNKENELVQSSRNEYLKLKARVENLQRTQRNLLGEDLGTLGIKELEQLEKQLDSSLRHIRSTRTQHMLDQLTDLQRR

T16: OsMADS8 aa 61-248 (Oryza sativa, UniProt Q9SAR1 61-248)
T16 construct: prey, AD fusion; also called PN20778
T16 sequence: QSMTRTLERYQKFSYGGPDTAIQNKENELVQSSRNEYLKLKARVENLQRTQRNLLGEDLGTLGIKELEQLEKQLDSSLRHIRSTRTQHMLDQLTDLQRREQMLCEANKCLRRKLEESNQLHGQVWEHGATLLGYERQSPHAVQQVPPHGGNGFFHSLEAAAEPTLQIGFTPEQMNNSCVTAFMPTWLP

T17: OsMADS45 aa 48-249 (Oryza sativa, UniProt P0C5B0 48-249)
T17 construct: prey, AD fusion; also called PN20231
T17 sequence: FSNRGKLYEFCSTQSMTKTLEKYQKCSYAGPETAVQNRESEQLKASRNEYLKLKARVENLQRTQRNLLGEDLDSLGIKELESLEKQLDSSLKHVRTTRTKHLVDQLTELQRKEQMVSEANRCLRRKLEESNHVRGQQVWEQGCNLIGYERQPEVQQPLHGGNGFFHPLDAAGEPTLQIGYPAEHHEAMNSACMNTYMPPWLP

B1: OsMADS6 aa 50-200 (other)
chain: SRGKLYEFGSAGITKTLERYQHCCYNAQDSNNALSETQSWYHEMSKLKAKFEALQRTQRHLLGEDLGPLSVKELQQLEKQLECALSQARQRKTQLMMEQVEELRRKERQLGEINRQLKHKLEVEGSTSNYRAMQQASWAQGAVVENGAAYV
notes: bait, Gal4 DBD fusion; also called PN20233
B2: OsFDRMADS8 aa 60-160 (other)
chain: APSLQKTIDRYKAYTKDHVNNKTIQQDIQQVKDDTLGLAKKLEALDESRRKILGENLEGCSIEELRGLEMKLEKSLHNIRLKKTELLERQIAKLKEKERTL
notes: bait, Gal4 DBD fusion; also called PN20698
B3: OsMADS15 aa 100-235 (other)
chain: AKIETIQKCHKHLMGEDHESLNLKELQQLEQQLESSLKHIISRKSHLMLESISELQKKERSLQEENKALQKELVERQKNVRGQQQVGQWDQTQVQAQAQAQPQAQTSSSSSSMLRDQQALLPPQNICYPPVMMGER
notes: bait, Gal4 DBD fusion; also called PN20842
B4: OsMADS5 aa 50-160 (other)
chain: TRGRLFEFSTSSCMYKTLERYRSCNYNLNSCEASAALETELSNYQEYLKLKTRVEFLQTTQRNLLGEDLVPLSLKELEQLENQIEISLMNIRSSKNQQLLDQVFELKRKEQ
notes: bait, Gal4 DBD fusion; also called PN20770
B5: OsPN31165 aa 58-252 (other)
chain: YAREMERLSAKESLLLAFRDAGGFESLVSGKTTGMQKIDVNERIVGLERLNPTPRPTTSPFLEGRWNFEWFGDSSPGALAARLLFERSPTTVAHFTGLDVLIKDGYSKISSNVKFLNTVQSKFLLTTQLSVEGPIRMKEEYVEGLIEIPRIREETLPDQLKGFFGQTAGALQQLPAPIRDAVSEGIKLPLNGMFQ
notes: prey, AD fusion; also called Novel protein PN31165
B6: OsPN29971 aa 1-108 (other)
chain: EKSDVQSTLEMELDRRSNDWSVKLAEFQSEEQRLRERVRELAEQNVSFQREVTLLESNRIDVSNKITSLELQNKQLNDELQKVKKEHDTLLKSSVELNDNLTKTAEGY
notes: prey, AD fusion; also called Novel protein PN29971, fragment, similar to A. thaliana centromere protein
B7: OsMADS3 aa 70-170 (other)
chain: KKANSDTSNSGTVAEVNAQHYQQESSKLRQQISSLQNANSRTIVGDSINTMSLRDLKQVENRLEKGIAKIRARKNELLYAEVEYMQKREVELQNDNMYLRS
notes: bait, Gal4 DBD fusion; also called PN20700

Key:
[1] = molecular target: T1, OsMADS8 aa 75-238; assay: Y2H; output trait library
How it was run: (§1)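 Using an automated, high-throughput yeast two-hybrid assay provided by Myriad Genetics Inc. (Salt Lake City, Utah), protein-protein interactions were detected. Against either the input trait or the output trait rice prey library, a bait clone encoding a defined amino-acid fragment of a rice protein was screened. The encoding sequences of the prey clones that were retrieved were then compared against databases by BLAST to identify the interacting proteins.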

[2] = molecular target: T2, OsMADS45 aa 83-234; assay: Y2H; output trait library
How it was run: as §1

[3] = molecular target: T3, OsMADS8 aa 79-248; assay: Y2H; output trait library
How it was run: as §1

[4] = molecular target: T4, OsMADS1 aa 70-257; assay: Y2H; output trait library
How it was run: as §1

[5] = molecular target: T5, OsRAP1B aa 1-179; assay: Y2H; output trait library
How it was run: as §1

[6] = molecular target: T6, OsMADS45 aa 56-249; assay: Y2H; output trait library
How it was run: as §1

[7] = molecular target: T7, OsMADS1 aa 74-172; assay: Y2H; input trait library
How it was run: as §1

[8] = molecular target: T8, OsMADS1 aa 95-254; assay: Y2H; input trait library
How it was run: as §1

[9] = molecular target: T9, OsMADS45 aa 120-249; assay: Y2H; output trait library
How it was run: as §1

[10] = molecular target: T10, OsMADS17 aa 51-248; assay: Y2H; output trait library
How it was run: as §1

[11] = molecular target: T11, OsFDRMADS6 aa 74-246; assay: Y2H; output trait library
How it was run: as §1

[12] = molecular target: B7; assay: Y2H; input trait library
How it was run: as §1

[13] = molecular target: B3; assay: Y2H; input trait library
How it was run: as §1

[14] = molecular target: T12, OsMADS8 aa 68-245; assay: Y2H; output trait library
How it was run: as §1

[15] = molecular target: T13, OsMADS45 aa 57-249; assay: Y2H; output trait library
How it was run: as §1

[16] = molecular target: T14, OsMADS45 aa 2-214; assay: Y2H; output trait library
How it was run: as §1

[17] = molecular target: T15, OsMADS8 aa 6-159; assay: Y2H; output trait library
How it was run: as §1

[18] = molecular target: T16, OsMADS8 aa 61-248; assay: Y2H; input trait library
How it was run: as §1

[19] = molecular target: T17, OsMADS45 aa 48-249; assay: Y2H; input trait library
How it was run: as §1

Binder: B1
- binding result [1]: binds
- binding result [2]: binds
- binding result [3]: binds
- binding result [4]: binds
- binding result [5]: binds

Binder: B2
- binding result [6]: binds

Binder: B3
- binding result [7]: binds
- binding result [8]: binds
- binding result [9]: binds

Binder: B4
- binding result [10]: binds
- binding result [11]: binds

Binder: B5
- binding result [12]: binds

Binder: B6
- binding result [13]: binds

Binder: B7
- binding result [14]: binds
- binding result [15]: binds
- binding result [16]: binds
- binding result [17]: binds
- binding result [18]: binds
- binding result [19]: binds
